Data taken from patent US20150218534A1, “MODIFIED DNA POLYMERASE” (TOYOBO CO., LTD., priority 2012, published 2015).

Key:
Format in all cases: biochemical
Psychrobacter DNA = assay: PCR amplification using inosine-containing primers; conditions: primers 75 pmol or 150 pmol, 35 cycles (FIG. 11)
Experimental: Using inosine-containing primers, the difference in PCR amplification was compared. For comparison, KOD mutants and KOD (wild-type), each mixed with 1 μg of a KOD antibody per U of the enzyme, and Taq DNA polymerase mixed with an antibody (a mixture of equal amounts of Taq DNA polymerase (produced by Toyobo Co. Ltd.) and Anti-Taq High (produced by Toyobo Co. Ltd.)) were used.
For PCR with the KOD mutants and PCR with the KOD, a buffer, MgSO4, and dNTPs included in KOD-Plus-Ver. 2 (produced by Toyobo Co. Ltd.) were used. 50 μl of individual reaction solutions containing 1× PCR buffer, 1.5 mM MgSO4, dNTPs (dATP, dTTP, dCTP, dGTP) in an amount of 0.2 mM, primers (SEQ ID NOs: 40 and 41) in an amount of 75 pmol or 150 pmol, 100 ng of Psychrobacter DNA, and 1 U of each respective enzyme mixed with the antibody were used. PCR was performed using a GeneAmp PCR system 9700 (Applied Biosystems) on the following schedule: preliminary reaction at 94° C. for 2 minutes, followed by 35 cycles, each cycle consisting of 98° C. for 10 seconds, 54° C. for 10 seconds, and 68° C. for 1 minute.
For PCR with the Taq DNA polymerase, 50 μl of a reaction solution containing 1× buffer included in Blend Taq (product of Toyobo), dNTPs (dATP, […], dCTP, dGTP) in an amount of 0.2 mM, primers in an amount of 75 pmol or 150 pmol (the same as above), 100 ng of Psychrobacter DNA, and 2.5 U of the enzyme mixed with the antibody was used. PCR was performed using a GeneAmp PCR system 9700 (Applied Biosystems) on the following schedule: preliminary reaction at 94° C. for 2 minutes, followed by 35 cycles, each cycle consisting of 94° C. for 30 seconds, 54° C. for 30 seconds, and 68° C. for 1 minute.
(§1) After the completion of each individual reaction, each of the resulting reaction solutions was analyzed using a DNA-1000 kit for MultiNA (produced by Shimadzu Corporation) to confirm amplified DNA fragments.

[1] = test system: bisulfite-treated human genomic DNA (MINT1, RAR, THBS1, MINT31); assay: PCR amplification of bisulfite-treated DNA; conditions: 40 cycles (FIG. 12)
Experimental: Using bisulfite-treated DNA as a template and various primers, the difference in PCR amplification was compared. For comparison, KOD mutant (Y7A/V93K) and KOD (wild-type), each mixed with 1 μg of a KOD antibody per U of the enzyme, and Taq DNA polymerase mixed with an antibody (a mixture of equal amounts of Taq DNA polymerase (produced by Toyobo Co. Ltd.) and Anti-Taq High (produced by Toyobo Co. Ltd.)) were used.
The bisulfite-treated DNA used was human genomic DNA (produced by Roche) that had been treated with a MethylCode Bisulfite Conversion Kit of Invitrogen.
For PCR with the KOD mutant (Y7A/V93K) and PCR with the KOD, a buffer, MgSO4, and dNTPs included in KOD-Plus-Ver. 2 (produced by Toyobo Co. Ltd.) were used. 50 μl of individual reaction solutions containing 1× PCR buffer, 1.5 mM MgSO4, dNTPs (dATP, dTTP, dCTP, dGTP) in an amount of 0.2 mM, primers (SEQ ID NOs: 42 and 43 for amplification of MINT1; SEQ ID NOs: 44 and 45for amplification of RAR; SEQ ID NOs: 46 and 47 for amplification of THBS1; SEQ ID NOs: 48 and 49 for amplification of MINT31) in an amount of 15 pmol, 1 μl of bisulfite-treated DNA extract, and 1 U of each respective enzyme mixed with the antibody were used. PCR was performed using a GeneAmp PCR system 9700 (Applied Biosystems) on the following schedule: preliminary reaction at 94° C. for 2 minutes, followed by 40 cycles, each cycle consisting of 98° C. for 10 seconds, 55° C. for 15 seconds, and 68° C. for 1 minute.
For PCR with the Taq DNA polymerase, 50 μl of a reaction solution containing 1× buffer included in Blend Taq (product of Toyobo), dNTPs (dATP, […], dCTP, dGTP) in an amount of 0.2 mM, primers in an amount of 15 pmol (the same as above), 1 μl of bisulfite-treated DNA extract, and 2.5 U of the enzyme mixed with the antibody was used. […]
as §1

[2] = test system: human genomic DNA (about 1.3 kb) with dUTP added; assay: Evaluation of uracil (dUTP) sensitivity by PCR with dUTP added to the reaction; conditions: addition of 0.5 μM of dUTP
Method in brief: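 Each enzyme (1 U) amplified about 1.3 kb from 10 ng human genomic DNA in KOD-Plus-Ver. 2 buffer with 1.5 mM MgSO4 and 0.2 mM dNTPs. dUTP was added at final 0.5, 5, 50, 100 and 200 μM, over 30 cycles of 98/65/68° C. Sensitivity is the dUTP level still yielding product on ethidium bromide-stained agarose gel.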

B1: KOD (wild-type): wild-type DNA polymerase from Thermococcus kodakaraensis (KOD) (protein, listed as Thermococcus kodakaraensis)
chain: MILDTDYITEDGKPVIRIFKKENGEFKIEYDRTFEPYFYALLKDDSAIEEVKKITAERHGTVVTVKRVEKVQKKFLGRPVEVWKLYFTHPQDVPAIRDKIREHPAVIDIYEYDIPFAKRYLIDKGLVPMEGDEELKMLAFDIETLYHEGEEFAEGPILMISYADEEGARVITWKNVDLPYVDVVSTEREMIKRFLRVVKEKDPDVLITYNGDNFDFAYLKKRCEKLGINFALGRDGSEPKIQRMGDRFAVEVKGRIHFDLYPVIRRTINLPTYTLEAVYEAVFGQPKEKVYAEEITTAWETGENLERVARYSMEDAKVTYELGKEFLPMEAQLSRLIGQSLWDVSRSSTGNLVEWFLLRKAYERNELAPNKPDEKELARRRQSYEGGYVKEPERGLWENIVYLDFRSLYPSIIITHNVSPDTLNREGCKEYDVAPQVGHRFCKDFPGFIPSLLGDLLEERQKIKKKMKATIDPIERKLLDYRQRAIKILANSYYGYYGYARARWYCKECAESVTAWGREYITMTIKEIEEKYGFKVIYSDTDGFFATIPGADAETVKKKAMEFLKYINAKLPGALELEYEGFYKRGFFVTKKKYAVIDEEGKITTRGLEIVRRDWSEIAKETQARVLEALLKDGDVEKAVRIVKEVTEKLSKYEVPPEKLVIHEQITRDLKDYKATGPHVAVAKRLAARGVKIRPGTVISYIVLKGSGRIGDRAIPFDEFDPTKHKYDAEYYIENQVLPAVERILRAFGYRKEDLRYQKTRQVGLSAWLKPKGT
Psychrobacter DNA
  amplification with inosine-containing primers: not amplified
[1]
  amplification of bisulfite-treated DNA: not amplified
[2]
  PCR products on addition of dUTP: no PCR products were confirmed
